The nanobody polyreactivity screen of Harvey et al. (2022)

Assay: yeast display, Sf9 membrane polyspecificity reagent, FACS + sequencing; frameworks hold sequencing errors
How it was run: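 A synthetic nanobody library was expressed on Saccharomyces cerevisiae BJ5465 by galactose induction for 36–48 hours. The library was stained for 1 hour at 4 °C with 10% biotinylated, detergent-solubilized Sf9 membrane reagent and enriched with streptavidin microbeads before FACS. Low and high (top ~1%) gates were set on anti-HA fluorescence for expression and streptavidin fluorescence for reagent binding, and each polyreactivity label reflects the gate of origin.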
For “QVQLVESGGGLVQAGGSLRLSCAASGFTFYSYALGWYIQAPGKERELVAAISRGGSTTYADSVKGRFTISRDNAKNTVYLQMNSLKPEDTAVYYCAARYRYRYTPYRYDYWGQGTQVTVSS”, the “polyreactivity (PSR sort gate)” value was “high polyreactivity”. With “QVQLVESGGGLVQAGGSLRLSCAASGFTFYSYAMGWYRQAPGKEREFVAAISGSGTITFYADSVKGRFTISRDNAKNTVYLQMNSLKPEDTAVYYCNADKYYRWSSPRYDYWGQGTQVTVSS” the “polyreactivity (PSR sort gate)” value was “low polyreactivity”. With “QVQLVESGGGLVQAGGSLRLSCAASGFTFYSYAMGWYRQAPGKERELVAAISWSGTRTYYADSVKGRFTISRDNAKNTVYLQMNSLKPEDTAVFYCAARGYRYGYGYWGQGTQVTVSS” the “polyreactivity (PSR sort gate)” value was “high polyreactivity”. With “QVQLVESGGGLVQAGGSLRLSCAASGFTFYSYVMGWYRQAPGKERELVAAISWSGGRTNYADSVKGRFTISRDNAKNTVYLQMNSLKPEDTAVYYCNAPFRLRYRVDYWGQVTQVTVSS” the “polyreactivity (PSR sort gate)” value was “high polyreactivity”. With “QVQLVESGGGLVQAGGSLRLSCAASGFTFYTNAMGWYRQARGQERELVAAISSSGGRTYYADSVKGRFTISRDNAKNTVYLQMNSLKPEDTAVYYCNAYFTRSFSYIYWGQGTQVTVSS” the “polyreactivity (PSR sort gate)” value was “high polyreactivity”. In the case of “QVQLVESGGGLVQAGGSLRLSCAASGFTFYTYAMGWYRQAPGKERELVATISGSGGDTNYADSVKGRFTISRDNEKNTVYLQMDSLKPEDTAVYYCAAEPDATTYSDPYDYWGQGTQVTVSS”, the “polyreactivity (PSR sort gate)” value is reported as “low polyreactivity”. With “QVQLVESGGGLVQAGGSLRLSCAASGFTFYTYTMGWYRQAPGKERELVAVISRSGGSTYYADSVKGLFTISRDNAKNTVYLQMNSLNPEDTAVYYCNAGYWRFIDSFDYWGQRTQVTVSS” the “polyreactivity (PSR sort gate)” value was “high polyreactivity”. For “QVQLVESGGGLVQAGGSLRLSCAASGFTFYVYTMGWYRQAPGKERELVASISGGRTYYADSVKGRFTISRDNAKNTVYLQMNSLKPEDTAVYYCAAVPYPSYYDTRYDYWGPGTQVTVSS”, the “polyreactivity (PSR sort gate)” value was “low polyreactivity”. In the case of “QVQLVESGGGLVQAGGSLRLSCAASGFTFYWYTMGGYRQAPGKDRELVAAISGSGGRTYYADSVKGRFTISRDNAKKTVYLQMNSLKPEDTAVYYCAARGRYAYPRYGYYPVNYWGQVTQVTVSS”, the “polyreactivity (PSR sort gate)” value is reported as “high polyreactivity”. For “QVQLVESGGGLVQAGGSLRLSCAASGFTFYYNAMGWYRQAPGKERELVAAIYSDGSTYYADSVKGRFTISRDNAKNTFYLQMNSLKAEDTAVYYCAVRKAYQYGFYYWGQGTQVTVSS”, the “polyreactivity (PSR sort gate)” value was “low polyreactivity”. For “QVQLVESGGGLVQAGGSLRLSCAASGFTFYYNAMGWYRQAPGKERELVATISGSGGRTYYADSVKGRFTISRDNAKNTVYLQMNSLKPEDTAVYYCAARYVWSRYGYWGQGTQVTVSS”, the “polyreactivity (PSR sort gate)” value was “high polyreactivity”. With “QVQLVESGGGLVQAGGSLRLSCAASGFTFYYYAMGWSRQAPGKERELVAAISQNGGRTYYADSVKGRFTISRDNAKNTVYLQMNSLKPEDTAVYYCAKASGYSSYGYWGQGTQVTVSS” the “polyreactivity (PSR sort gate)” value was “high polyreactivity”. With “QVQLVESGGGLVQAGGSLRLSCAASGFTFYYYAMGWYRQAPGKERELVAAISRGGGNTYYADSVKGRFTISRDNAKNTVYLQMNSLKPEDTAVYYCAARRPVYRIYGDRGRWYNYWGQGTQVTVSS” the “polyreactivity (PSR sort gate)” value was “high polyreactivity”. In the case of “QVQLVESGGGLVQAGGSLRLSCAASGFTFYYYAMGWYRQAPGKERELVAAISSRGGNTYYADSVKGRFTISRDNAKNTVYLQMNSLKPEDTAVYYCASVPLKYDYWGQGTQVTVSS”, the “polyreactivity (PSR sort gate)” value is reported as “high polyreactivity”. For “QVQLVESGGGLVQAGGSLRLSCAASGFTFYYYAMGWYRQAPGKERELVAAITSGGSTYYADSVKGRFTISRDNAKNTVYLQMNSLKPEDTAVYYCNTVHYNLDYEYDYWGQGTQGTVSS”, the “polyreactivity (PSR sort gate)” value was “low polyreactivity”. For “QVQLVESGGGLVQAGGSLRLSCAASGFTFYYYAMGWYRQAPGKERELVAAITSSGDSTFYADSVKGRFTISRDNAKNTVSLQMNSLKPEDTAVYYCAADRFQGRDDYWGQGTQGTVSS”, the “polyreactivity (PSR sort gate)” value was “high polyreactivity”. For “QVQLVESGGGLVQAGGSLRLSCAASGFTFYYYAMGWYRQAPGKERELVATISSSGGSTHYADSVKGRFTISRDNAKNTVYLQMNSLKPEDTAVYYCAADSYWDQSHIRDYWGQGTQVTVSS”, the “polyreactivity (PSR sort gate)” value was “low polyreactivity”. In the case of “QVQLVESGGGLVQAGGSLRLSCAASGFTFYYYTMGWYIKAPGKERELVAAITRSGGRTYYADSVKGRFTISRDNAKNTVYLQMNSLKPEDTAVYYCAARTPFYNSYRRDYWGQGTQVTVSS”, the “polyreactivity (PSR sort gate)” value is reported as “high polyreactivity”. For “QVQLVESGGGLVQAGGSLRLSCAASGFTFYYYTMGWYRQAPGKERELVAVITLSDGSTNYADSVKGRFTISRDNAKNTVYLQMNSLKPEDTAVYYCDAKYVDYGYHGYDYWGQGTQVTVSS”, the “polyreactivity (PSR sort gate)” value was “low polyreactivity”. For “QVQLVESGGGLVQAGGSLRLSCAASGFTFYYYTMGWYRQAPVKERELVAGITSRGGSTTYADSVKARFTISLDNAKNTVYLQMNSLKPEDTAVYYCNPLWAVHSGYDYLGQGTQVTVSS”, the “polyreactivity (PSR sort gate)” value was “high polyreactivity”. With “QVQLVESGGGLVQAGGSLRLSCAASGFTIAKYAMGWYRQAPGKERELVAAISSSGGRTYYADSVKGRFTISRDIAKNTVYLQMNSLNPEDTAVYYCAADFSGPFDYWGQGTQVSVSS” the “polyreactivity (PSR sort gate)” value was “high polyreactivity”. For “QVQLVESGGGLVQAGGSLRLSCAASGFTIERYAMGWYRQAPGKERELVAVISTSGGSTYYADSVKGRFTISRDNAKNTVYLQMNSLKPEDTAVYYCAKDGSSRGDYHFGWGYYYWGQGSQVTVSS”, the “polyreactivity (PSR sort gate)” value was “low polyreactivity”. In the case of “QVQLVESGGGLVQAGGSLRLSCAASGFTIGDYAMGWYRQAPGKERELVAAITYSGGSTYYADSVKGRFTISRDNAKNTVYLQMNSLKPEDTAVYYCNADYASQSGYDYWGQGTQVTVSS”, the “polyreactivity (PSR sort gate)” value is reported as “low polyreactivity”. For “QVQLVESGGGLVQAGGSLRLSCAASGFTIGKNAMGWYRQAPGKERELVAAISLSGGRTYADSVKGRFTISRDNAKNTVYLQMNSLKPEDTAVYYCAANRYPKFYWGQGTQVTVSS”, the “polyreactivity (PSR sort gate)” value was “high polyreactivity”. For “QVQLVESGGGLVQAGGSLRLSCAASGFTIRRYAMGWYRQAPGKERELVAAITTGGSTYYADSVKGRFTISRDNAKNTVYLQMNSLKPEDTAVYYCAALYPYKQYRLGYDSWGQGTQVTVSS”, the “polyreactivity (PSR sort gate)” value was “high polyreactivity”. With “QVQLVESGGGLVQAGGSLRLSCAASGFTIRSYAMGWYRQAPGKERELVAGITWRSSSTYYADSVKGRFTISRDNAKNTVYLQMNSLKPEDTAVYYCAARAVYRFNYWGQGTQVTVSS” the “polyreactivity (PSR sort gate)” value was “high polyreactivity”. With “QVQLVESGGGLVQAGGSLRLSCAASGFTIRWYAMGWYRQAPGKERELVAAISSGGGSTYYADSVKGRFTISRDNAKNTVYLQMNSLKPEDTAVYYCNARIQYFEYRGYEYWGQGTQVTVSS” the “polyreactivity (PSR sort gate)” value was “high polyreactivity”. In the case of “QVQLVESGGGLVQAGGSLRLSCAASGFTIRWYTMGWYRQAPWKERELVATINWSGGSTYYADSVKGRFTISRDNAKNTVYLQMNSLIPEDTAVYYCARRQSGTIKTRMDYWGQGTQVTVSS”, the “polyreactivity (PSR sort gate)” value is reported as “high polyreactivity”. In the case of “QVQLVESGGGLVQAGGSLRLSCAASGFTISQYAMGWYRQAPGKERELVAAISASGGRTYYADSVKGRFTISRDNAKNTVYLQMNSLKPDDTAVYYCAAKLYVSGGRYWYDYWGQGTQVTVSS”, the “polyreactivity (PSR sort gate)” value is reported as “high polyreactivity”. In the case of “QVQLVESGGGLVQAGGSLRLSCAASGFTITRYAMGWYRQAPGKERELVAAISKSGGSTFYADSVKGRFTISRDNAKNTVYLQMNSLKPEDTAVYYCAKVLRAKNSFDYWGQGTQVTVSS”, the “polyreactivity (PSR sort gate)” value is reported as “high polyreactivity”. In the case of “QVQLVESGGGLVQAGGSLRLSCAASGFTITYNAMGWYRKAPGKEREFVAAITNNGSTYYADSVKGRFTISRDNAKNTVYLQMNSLKPEDTAVYFCAVDPGYYDEYNYWGQGTQVTVSS”, the “polyreactivity (PSR sort gate)” value is reported as “low polyreactivity”. For “QVQLVESGGGLVQAGGSLRLSCAASGFTLAGYAMGWYRQAPGKERELVAAITSSGGSTFYADSVKGRFTISRDNAKNTVYLQMNSLKPEDTAVYYCAAKWAVVSGYGYWGQGTQVTVSS”, the “polyreactivity (PSR sort gate)” value was “high polyreactivity”. With “QVQLVESGGGLVQAGGSLRLSCAASGFTLARYAMGWYRQATGKERELVAAITKRGGSTYYADSVKGRFTISRDNAMNTVYLQMNSLKPEDTAVYYCATYKRSSHYDYWGQGTQVTVSS” the “polyreactivity (PSR sort gate)” value was “high polyreactivity”. In the case of “QVQLVESGGGLVQAGGSLRLSCAASGFTLEFYAMGWYRQAPGKERELVARITTSGGSTRYADSVKGRFTISRDNAKNTVYLQMNSLKPEDTAVYYCPARGYGYRNVQTYGYWGQGTQVTVSS”, the “polyreactivity (PSR sort gate)” value is reported as “high polyreactivity”. With “QVQLVESGGGLVQAGGSLRLSCAASGFTLEPNTMGWYRQAPGKERELVAGISWSGGSTYYADSVKGRFTISRDNAKNTVYLQMNSLKPEDTAVYYCNDDSGWFCYDYWGQGTQVTVSS” the “polyreactivity (PSR sort gate)” value was “low polyreactivity”. In the case of “QVQLVESGGGLVQAGGSLRLSCAASGFTLFGYAMGWYRPAPGKERELVAAITRSGGSTFYADSVKGRFTISRDNAKNTVYLQMNSLKPEDTAVYYCAAVRSKLYYYWGQGTQVTVSS”, the “polyreactivity (PSR sort gate)” value is reported as “high polyreactivity”. For “QVQLVESGGGLVQAGGSLRLSCAASGFTLGDNAMGWYRQAPGTERELVAAISASGGSTYYADSVKGRFTISRDNEKNTVYLQMNSLKPEDTAVYYCILHGYKYDYWGQGTQVTVSS”, the “polyreactivity (PSR sort gate)” value was “low polyreactivity”. In the case of “QVQLVESGGGLVQAGGSLRLSCAASGFTLGFYAMGWYRQEPGKERELVAAINWRGGSTYYADSVKGRFTISRDNAKNTVYLLMNSLKPEDTAVYYCNRVYRPSRYDYWGQGTQVTVSS”, the “polyreactivity (PSR sort gate)” value is reported as “high polyreactivity”. In the case of “QVQLVESGGGLVQAGGSLRLSCAASGFTLGSYVMGWSRQAPGKERELVARITWSGGSTYYADSVKGRFTISRDNAKNTVYLQMNSLKPEDTAVYYCNTGYWARLAYWPFNYKWDDYWGQGTQVTVSS”, the “polyreactivity (PSR sort gate)” value is reported as “high polyreactivity”. With “QVQLVESGGGLVQAGGSLRLSCAASGFTLGTNTMGWYRQAPGKEREFVAAISGRGSSTYYADSVKGRFTISRDNAKNTVYLQMNSLKPEDTAVYYCNKVFWPHPKVVTGNYWGQGTQVTVSS” the “polyreactivity (PSR sort gate)” value was “high polyreactivity”. In the case of “QVQLVESGGGLVQAGGSLRLSCAASGFTLGWYAMGWYRQAPGKERELVASINWDGGSTYYADSVKGRFTISRDNAKNTVYLQMNSLKPEDTAVYYCNAVNKWFPKVGYNYWGQGTQVTVSS”, the “polyreactivity (PSR sort gate)” value is reported as “high polyreactivity”. In the case of “QVQLVESGGGLVQAGGSLRLSCAASGFTLHSYAMGWYRQAPGKERELVAAITTGGSTYYADSVKGRFTISRDNAKNTVYLQMNSLKPEDTAVYYCAADVPGNYRKYRYGRASSHDYWGQGTQVTVSS”, the “polyreactivity (PSR sort gate)” value is reported as “low polyreactivity”. In the case of “QVQLVESGGGLVQAGGSLRLSCAASGFTLNAYAMGWYRQAPGKERELVAAISRNGGRTYYADSVKGRFTISRDNAKNTVYLQMNSLKPEDTAVYYCNAVSGTIARPYDPYDYWGQGTQVTVSS”, the “polyreactivity (PSR sort gate)” value is reported as “high polyreactivity”.
